From patent US20180155451A1 (published 2018)

T1: FcγRIIb extracellular domain with C-terminal His tag (human, UniProt P31994 43-217)
T1 construct: extracellular domain; Soluble receptor expressed in FreeStyle293 cells; analyte in Biacore; also called FcgRIIb; 2b; not shown: His tag at the C terminus
T1 sequence (looked up): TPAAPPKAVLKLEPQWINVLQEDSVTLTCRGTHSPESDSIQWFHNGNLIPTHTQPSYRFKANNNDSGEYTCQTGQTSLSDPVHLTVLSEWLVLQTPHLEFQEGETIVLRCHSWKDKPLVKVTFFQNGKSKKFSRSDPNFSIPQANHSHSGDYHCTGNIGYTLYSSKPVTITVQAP


What was measured:
[1] = target: T2, FcγRIa extracellular domain with C-terminal His tag (human, UniProt P12314 16-292); experiment: SPR (Biacore); He/Con_1a divided by He/Con_2b (FcγRIIb)
T2 construct: extracellular domain; Soluble receptor expressed in FreeStyle293 cells; analyte in Biacore; also called FcgRI; FcgRIa; not shown: His tag at the C terminus
T2 sequence (P12314 16-292): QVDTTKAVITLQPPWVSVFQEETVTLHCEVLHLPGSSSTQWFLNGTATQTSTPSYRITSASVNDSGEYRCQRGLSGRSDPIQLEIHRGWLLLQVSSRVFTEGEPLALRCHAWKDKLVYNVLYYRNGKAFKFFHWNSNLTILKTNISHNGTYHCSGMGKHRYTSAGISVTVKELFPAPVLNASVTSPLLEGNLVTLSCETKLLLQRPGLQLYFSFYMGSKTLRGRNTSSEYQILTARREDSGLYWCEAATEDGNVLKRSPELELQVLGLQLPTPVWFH
Summary of the method: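 Each FcγR was diluted in HBS-EP+ and injected at 25 °C over antibody held by an antigen-peptide sensor surface. Bound antibody was stripped with 10 mM glycine-HCl, pH 1.5, so chips could be reused.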

[2] = target: T1, FcγRIIb extracellular domain with …; experiment: SPR (Biacore), antibody captured on antigen peptide chip, FcγR as analyte; binding relative to GpH7-A5/GpH7-B3/GpL16-k0 = 100
[3] = target: T2, FcγRIa extracellular domain with …; experiment: as above

Binder	He_1a/2b (Ia/IIb) [1]	He/Con_2b (IIb binding) [2]	He/Con_1a (Ia binding) [3]
GpH7-A5/GpH7-B3 variant P329_07I/GpL16-k0 (antibody, human IgG1, kappa, He Ab: heterodimerized anti-glypican-3 IgG1, substitution in one H chain only; also called He Ab P329I) heavy 1: not shown heavy 2: not shown light: DIVMTQSPLSLPVTPGEPASISCQASESLVHSNRNTYLHWYLQKPGQSPQLLIYKVSNRFSGVPDRFSGSGSGTDFTLKISRVEAEDVGVYYCSQNTHVPPTFGQGTKVEIERTVAAPSVFIFPPSDEQLKSGTASVVCLLNNFYPREAKVQWKVDNALQSGNSQESVTEQDSKDSTYSLSSTLTLSKADYEKHKVYACEVTHQGLSSPVTKSFNRGEC	2.72	34.6 % of control (control = 100)	94.1 % of control (control = 100)
GpH7-A5/GpH7-B3 variant P329_13S/GpL16-k0 (antibody, human IgG1, kappa, He Ab: heterodimerized anti-glypican-3 IgG1, substitution in one H chain only; also called He Ab P329S) heavy 1: not shown heavy 2: not shown light: DIVMTQSPLSLPVTPGEPASISCQASESLVHSNRNTYLHWYLQKPGQSPQLLIYKVSNRFSGVPDRFSGSGSGTDFTLKISRVEAEDVGVYYCSQNTHVPPTFGQGTKVEIERTVAAPSVFIFPPSDEQLKSGTASVVCLLNNFYPREAKVQWKVDNALQSGNSQESVTEQDSKDSTYSLSSTLTLSKADYEKHKVYACEVTHQGLSSPVTKSFNRGEC	2.27	41 % of control (control = 100)	93.3 % of control (control = 100)
GpH7-A5/GpH7-B3 variant P329_19Q/GpL16-k0 (antibody, human IgG1, kappa, He Ab: heterodimerized anti-glypican-3 IgG1, substitution in one H chain only; also called He Ab P329Q) heavy 1: not shown heavy 2: not shown light: DIVMTQSPLSLPVTPGEPASISCQASESLVHSNRNTYLHWYLQKPGQSPQLLIYKVSNRFSGVPDRFSGSGSGTDFTLKISRVEAEDVGVYYCSQNTHVPPTFGQGTKVEIERTVAAPSVFIFPPSDEQLKSGTASVVCLLNNFYPREAKVQWKVDNALQSGNSQESVTEQDSKDSTYSLSSTLTLSKADYEKHKVYACEVTHQGLSSPVTKSFNRGEC	2.31	30.7 % of control (control = 100)	70.7 % of control (control = 100)
GpH7-A5/GpH7-B3 variant P329_09D/GpL16-k0 (antibody, human IgG1, kappa, He Ab: substitution in one H chain only; also called He Ab P329D) heavy 1: not shown heavy 2: not shown light: DIVMTQSPLSLPVTPGEPASISCQASESLVHSNRNTYLHWYLQKPGQSPQLLIYKVSNRFSGVPDRFSGSGSGTDFTLKISRVEAEDVGVYYCSQNTHVPPTFGQGTKVEIERTVAAPSVFIFPPSDEQLKSGTASVVCLLNNFYPREAKVQWKVDNALQSGNSQESVTEQDSKDSTYSLSSTLTLSKADYEKHKVYACEVTHQGLSSPVTKSFNRGEC	1.45	53.5 % of control (control = 100)	77.6 % of control (control = 100)
GpH7-A5/GpH7-B3 variant P329_15Y/GpL16-k0 (antibody, human IgG1, kappa, He Ab: heterodimerized anti-glypican-3 IgG1, substitution in one H chain only; also called He Ab P329Y) heavy 1: not shown heavy 2: not shown light: DIVMTQSPLSLPVTPGEPASISCQASESLVHSNRNTYLHWYLQKPGQSPQLLIYKVSNRFSGVPDRFSGSGSGTDFTLKISRVEAEDVGVYYCSQNTHVPPTFGQGTKVEIERTVAAPSVFIFPPSDEQLKSGTASVVCLLNNFYPREAKVQWKVDNALQSGNSQESVTEQDSKDSTYSLSSTLTLSKADYEKHKVYACEVTHQGLSSPVTKSFNRGEC	2.09	45.7 % of control (control = 100)	95.6 % of control (control = 100)
GpH7-A5/GpH7-B3 variant T335_11K/GpL16-k0 (antibody, human IgG1, kappa, He Ab: heterodimerized anti-glypican-3 IgG1, substitution in one H chain only; also called He Ab T335K) heavy 1: not shown heavy 2: not shown light: DIVMTQSPLSLPVTPGEPASISCQASESLVHSNRNTYLHWYLQKPGQSPQLLIYKVSNRFSGVPDRFSGSGSGTDFTLKISRVEAEDVGVYYCSQNTHVPPTFGQGTKVEIERTVAAPSVFIFPPSDEQLKSGTASVVCLLNNFYPREAKVQWKVDNALQSGNSQESVTEQDSKDSTYSLSSTLTLSKADYEKHKVYACEVTHQGLSSPVTKSFNRGEC	1.22	91 % of control (control = 100)	111 % of control (control = 100)
GpH7-A5/GpH7-B3 variant P329_10E/GpL16-k0 (antibody, human IgG1, kappa, He Ab: substitution in one H chain only; also called He Ab P329E) heavy 1: not shown heavy 2: not shown light: DIVMTQSPLSLPVTPGEPASISCQASESLVHSNRNTYLHWYLQKPGQSPQLLIYKVSNRFSGVPDRFSGSGSGTDFTLKISRVEAEDVGVYYCSQNTHVPPTFGQGTKVEIERTVAAPSVFIFPPSDEQLKSGTASVVCLLNNFYPREAKVQWKVDNALQSGNSQESVTEQDSKDSTYSLSSTLTLSKADYEKHKVYACEVTHQGLSSPVTKSFNRGEC	1.5	52.7 % of control (control = 100)	78.8 % of control (control = 100)
GpH7-A5/GpH7-B3 variant T335_12R/GpL16-k0 (antibody, human IgG1, kappa, He Ab: heterodimerized anti-glypican-3 IgG1, substitution in one H chain only; also called He Ab T335R) heavy 1: not shown heavy 2: not shown light: DIVMTQSPLSLPVTPGEPASISCQASESLVHSNRNTYLHWYLQKPGQSPQLLIYKVSNRFSGVPDRFSGSGSGTDFTLKISRVEAEDVGVYYCSQNTHVPPTFGQGTKVEIERTVAAPSVFIFPPSDEQLKSGTASVVCLLNNFYPREAKVQWKVDNALQSGNSQESVTEQDSKDSTYSLSSTLTLSKADYEKHKVYACEVTHQGLSSPVTKSFNRGEC	1.23	91.9 % of control (control = 100)	113 % of control (control = 100)
